{"source": "patent US10494423B2", "about": "“Maytansinoid derivatives with peptide linker and conjugates thereof” (priority 2011, dated 2019)", "target": "T1, cathepsin B (Bos taurus, UniProt P07688)", "T1 construct": "cathepsin B (bovine spleen; EMD Biosciences); purchased EMD Biosciences; host or cells: bovine spleen (tissue-derived enzyme)", "assay": "In vitro cleavage of conjugate by cathepsin B", "format": "biochemical, bovine", "conditions": "4.6 μM conjugate, 0.9 μM cathepsin B, pH 6.0, 37° C., 0-26 h", "protocol": "huC242-3b conjugate (4.6 μM) was incubated with 0.9 μM cathepsin B (bovine spleen; EMD Biosciences) in pH 6.0 buffer containing 0.6 mM CaCl2/MgCl2 and 2 mM DTT (dithiothreitol) at 37° C. 100 μl aliquots were taken at various time points (0, 1, 3, 8, 17, and 26 h) and free maytansinoids were quantified using a mixed-mode chromatography method (Fleming, et al, Analytical Biochemistry, 2005, 340, 272). Briefly, a HISEP shielded hydrophobic phase column (5 μm particle size, 4.6×250 mm length, Supelco, Bellefonte, Pa., USA) was used for analyzing Ab-DM1 conjugates. Detection was at 252 and 280 nm (extracted from PDA spectra). The flow rate was 0.7 ml/min. Mobile phase A consisted of 100 mM ammonium acetate (pH 7.0). Mobile phase B was 100% acetonitrile. The column was equilibrated at 25% B followed by a linear gradient over 25 min to 40% B after sample injection. […] Synthesized compound 5 had the same retention time and mass spectrum as this metabolite.", "data": [{"molecule": "huC242-3b: huC242 antibody conjugated via SMCC linker to compound 2; 3.3 maytansinoids per antibody (conjugate, chains of the INN, looked up, SMCC-linked maytansinoid compound 2, DAR 3.3, huC242 antibody conjugated via SMCC linker to compound 2; 3.3 maytansinoids per antibody) VH: QVQLVQSGAEVKKPGETVKISCKASDYTFTYYGMNWVKQAPGQGLKWMGWIDTTTGEPTYAQKFQGRIAFSLETSASTAYLQIKSLKSEDTATYFCARRGPYNWYFDVWGQGTTVTVSS VL: DIVMTQSPLSVPVTPGEPVSISCRSSKSLLHSNGNTYLYWFLQRPGQSPQLLIYRMSNLVSGVPDRFSGSGSGTAFTLRISRVEAEDVGVYYCLQHLEYPFTFGPGTKLELK", "values": [{"measurement": "released metabolite on cathepsin B cleavage", "result": "sole released metabolite 5 was detected"}]}]}
